Earlier results on 1 substance are cited in article PMC3470569.

By Kd is commonly meant a measure of binding affinity in units of concentration.

The target of the data set is V-ATPase subunit a proximal lobe of N-terminal domain (Saccharomyces cerevisiae) (UniProt P32563).
V-ATPase subunit a proximal lobe of N-terminal domain (Saccharomyces cerevisiae), sequence (P32563 104-372): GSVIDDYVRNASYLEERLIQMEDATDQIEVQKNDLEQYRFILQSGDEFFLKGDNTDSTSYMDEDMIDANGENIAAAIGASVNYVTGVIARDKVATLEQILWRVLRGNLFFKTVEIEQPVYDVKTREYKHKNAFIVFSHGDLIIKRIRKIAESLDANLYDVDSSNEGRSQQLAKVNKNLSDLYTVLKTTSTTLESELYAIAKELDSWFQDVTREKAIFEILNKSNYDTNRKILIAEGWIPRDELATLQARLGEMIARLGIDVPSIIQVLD

V-ATPase subunit C Cfoot, sequence (P31412 158-277): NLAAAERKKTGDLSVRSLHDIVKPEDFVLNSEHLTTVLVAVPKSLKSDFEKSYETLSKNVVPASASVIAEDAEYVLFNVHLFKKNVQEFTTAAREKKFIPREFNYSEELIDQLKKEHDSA

Turning to “V-ATPase subunit C Cfoot (from UniProt P31412)”, the Kd is 30 µM.
